Reference: ChEMBL document CHEMBL2074118, “Effects of tacrolimus and cyclosporin A on peptide transporter PEPT1 in Caco-2 cells” (Pharm Res, 2001)

Substrate: CN(CC(=O)O)C(=O)CN
Assay: TP_TRANSPORTER: uptake in Caco-2 cells
Assay type: functional, cell-based

B1: Solute carrier family 15 member 1 (Homo sapiens), P46059 (protein)
chain: MGMSKSHSFFGYPLSIFFIVVNEFCERFSYYGMRAILILYFTNFISWDDNLSTAIYHTFVALCYLTPILGALIADSWLGKFKTIVSLSIVYTIGQAVTSVSSINDLTDHNHDGTPDSLPVHVVLSLIGLALIALGTGGIKPCVSAFGGDQFEEGQEKQRNRFFSIFYLAINAGSLLSTIITPMLRVQQCGIHSKQACYPLAFGVPAALMAVALIVFVLGSGMYKKFKPQGNIMGKVAKCIGFAIKNRFRHRSKAFPKREHWLDWAKEKYDERLISQIKMVTRVMFLYIPLPMFWALFDQQGSRWTLQATTMSGKIGALEIQPDQMQTVNAILIVIMVPIFDAVLYPLIAKCGFNFTSLKKMAVGMVLASMAFVVAAIVQVEIDKTLPVFPKGNEVQIKVLNIGNNTMNISLPGEMVTLGPMSQTNAFMTFDVNKLTRINISSPGSPVTAVTDDFKQGQRHTLLVWAPNHYQVVKDGLNQKPEKGENGIRFVNTFNELITITMSGKVYANISSYNASTYQFFPSGIKGFTISSTEIPPQCQPNFNTFYLEFGSAYTYIVQRKNDSCPEVKVFEDISANTVNMALQIPQYFLLTCGEVVFSVTGLEFSYSQAPSNMKSVLQAGWLLTVAVGNIIVLIVAGAGQFSKQWAEYILFAALLLVVCVIFAIMARFYTYINPAEIEAQFDEDEKKNRLEKSNPYFMSGANSQKQM
  Km: 830 µM
